# How the values were obtained:
# [1] = biological target: T1, human progesterone receptor (hPR) (Homo sapiens, UniProt P06401); experiment: Coactivation of hPR on MMTV-LTR luciferase reporter in CV-1 cells; assay type: cell-based; conditions: coexpressed RAC3, 100 nM progesterone
# T1 construct: expressed in transfected cells; host or cells: CV-1 monkey kidney cells
# Procedure: In this experiment, transfected cells were treated with or without 100 nM of progesterone at presence or absence of coexpressed RAC3 or SRC-1 in CV-1 cells.
# Thus, RAC3 is a bona fide transcriptional coactivator for mammalian steroid/nuclear hormone receptors.
# [2] = biological target: T2, Gal4 DBD fusion of the LBD of hRARα (Homo sapiens, UniProt P10276); experiment: Coactivation of Gal-RAR on Gal4-tk-Luc reporter in A549 cells; assay type: cell-based; conditions: overexpression of RAC3, 100 nM atRA, 24 hours
# T2 construct: Gal4 DBD fusion of the LBD of hRARα (Gal-RAR); expressed in transfected cells; host or cells: A549 human lung carcinoma cells
# Procedure: Monkey kidney-derived CV-1 cells and human lung carcinoma A549 cells were grown in phenol-free DMEM medium supplemented with 10% charcoal-stripped fetal bovine serum (Gibco). One day before transfection, cells were seeded in 12-well plates at a density of 50,000 cells per well. A mixture of DNAs was prepared that contained 0.5 μg of expression vector, 0.5 μg of pCMX-βGal used as internal control for transfection efficiency, 1 μg of luciferase reporter, and 1.5 μg of carrier DNA (PGEM) in a final volume of 30 μl. The DNA solution was mixed dropwise with one volume of 0.5 M CaCl2 and two volumes of 2×BBS (50 mM N,N-bis(2-hydroxyethyl)-2-aminoethanesulfonic acid (BES; Calbiochem), 280 mM NaCl, 1.5 mM Na2HPO4, pH 6.95). DNA precipitates were allowed to form at room temperature for 10 minutes and applied evenly to the cell cultures. Cells were allowed to transfect for 12 hours, then the precipitates were removed by washing transfected cells twice with phosphate buffered saline (PBS). […]
# Luciferase and β-galactosidase assays were used to analyze the cultures. […] The luciferase activities were determined with MLX microtiter plate luminometer (Dynex) using 100 μl of assay solution (0.1 M KPO4, 5 mM ATP, 10 mM MgCl2) and 100 μl of luciferin solution (0.01 M D-luciferin in 0.1 M KPO4, pH 7.8). […]
# COUP (LBD of COUP-TFI) = biological target: T3, COUP (LBD of COUP-TFI) (Homo sapiens, UniProt P10589); experiment: Yeast two-hybrid interaction with COUP-TFI; assay type: binding; conditions: β-galactosidase ONPG assay
# T3 construct: COUP (LBD of COUP-TFI); expressed in transfected cells; host or cells: Saccharomyces cerevisiae Y190
# T3 sequence (P10589 184-410 limits assumed): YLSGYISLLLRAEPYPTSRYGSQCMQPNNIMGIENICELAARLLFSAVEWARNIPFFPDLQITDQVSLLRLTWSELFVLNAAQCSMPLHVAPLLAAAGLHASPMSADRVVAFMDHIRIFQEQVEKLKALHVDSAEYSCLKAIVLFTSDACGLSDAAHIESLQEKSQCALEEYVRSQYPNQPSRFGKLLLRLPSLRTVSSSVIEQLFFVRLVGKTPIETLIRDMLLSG
# Procedure: The protein—protein interactions between RAC3 and several steroid/nuclear receptors were analyzed by the yeast two-hybrid system. The original two-hybrid clone, RAC3.1 in pGAD10 vector, was retransformed together with yeast expression vectors for Gal4 DBD fusion of selected hormone receptor genes into Y190 cells. The receptors used include RAR (full-length hRARα), RXR (full-length hRXRα), VDR (LBD of human Vitamin D receptor), PPAR (LBD of mPPARα), TR (LBD) of hTRβ), COUP (LBD of COUP-TFI). Three independent colonies from each transformation were selected and analyzed for expression of […] activities by liquid ONPG assay (FIG. 6) after treatment with 1 μM of corresponding ligands (closed bars), or with equal concentration of vehicle alone (open bars). […] The ligands used in these experiments were atRA, VitD3 (1,25-dihydroxyvitamin D3), and Wy (Wy 14,642). […] In the absence of ligand, RAC3 can interact with RAR and PPAR.
# T2 sequence (P10276 183-417 limits assumed): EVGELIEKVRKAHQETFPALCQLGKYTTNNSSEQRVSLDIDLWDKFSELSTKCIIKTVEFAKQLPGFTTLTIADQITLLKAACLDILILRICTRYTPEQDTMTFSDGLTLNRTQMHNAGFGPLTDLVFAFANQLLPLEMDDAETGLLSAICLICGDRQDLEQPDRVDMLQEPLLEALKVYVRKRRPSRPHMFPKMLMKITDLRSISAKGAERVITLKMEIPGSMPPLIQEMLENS
# T2 sequence (Q9Y6Q9 with tags, fused parts or gaps isoform Q9Y6Q9-5 D131E/G132A/T187P/E704Q/DEL1268-1272 partner): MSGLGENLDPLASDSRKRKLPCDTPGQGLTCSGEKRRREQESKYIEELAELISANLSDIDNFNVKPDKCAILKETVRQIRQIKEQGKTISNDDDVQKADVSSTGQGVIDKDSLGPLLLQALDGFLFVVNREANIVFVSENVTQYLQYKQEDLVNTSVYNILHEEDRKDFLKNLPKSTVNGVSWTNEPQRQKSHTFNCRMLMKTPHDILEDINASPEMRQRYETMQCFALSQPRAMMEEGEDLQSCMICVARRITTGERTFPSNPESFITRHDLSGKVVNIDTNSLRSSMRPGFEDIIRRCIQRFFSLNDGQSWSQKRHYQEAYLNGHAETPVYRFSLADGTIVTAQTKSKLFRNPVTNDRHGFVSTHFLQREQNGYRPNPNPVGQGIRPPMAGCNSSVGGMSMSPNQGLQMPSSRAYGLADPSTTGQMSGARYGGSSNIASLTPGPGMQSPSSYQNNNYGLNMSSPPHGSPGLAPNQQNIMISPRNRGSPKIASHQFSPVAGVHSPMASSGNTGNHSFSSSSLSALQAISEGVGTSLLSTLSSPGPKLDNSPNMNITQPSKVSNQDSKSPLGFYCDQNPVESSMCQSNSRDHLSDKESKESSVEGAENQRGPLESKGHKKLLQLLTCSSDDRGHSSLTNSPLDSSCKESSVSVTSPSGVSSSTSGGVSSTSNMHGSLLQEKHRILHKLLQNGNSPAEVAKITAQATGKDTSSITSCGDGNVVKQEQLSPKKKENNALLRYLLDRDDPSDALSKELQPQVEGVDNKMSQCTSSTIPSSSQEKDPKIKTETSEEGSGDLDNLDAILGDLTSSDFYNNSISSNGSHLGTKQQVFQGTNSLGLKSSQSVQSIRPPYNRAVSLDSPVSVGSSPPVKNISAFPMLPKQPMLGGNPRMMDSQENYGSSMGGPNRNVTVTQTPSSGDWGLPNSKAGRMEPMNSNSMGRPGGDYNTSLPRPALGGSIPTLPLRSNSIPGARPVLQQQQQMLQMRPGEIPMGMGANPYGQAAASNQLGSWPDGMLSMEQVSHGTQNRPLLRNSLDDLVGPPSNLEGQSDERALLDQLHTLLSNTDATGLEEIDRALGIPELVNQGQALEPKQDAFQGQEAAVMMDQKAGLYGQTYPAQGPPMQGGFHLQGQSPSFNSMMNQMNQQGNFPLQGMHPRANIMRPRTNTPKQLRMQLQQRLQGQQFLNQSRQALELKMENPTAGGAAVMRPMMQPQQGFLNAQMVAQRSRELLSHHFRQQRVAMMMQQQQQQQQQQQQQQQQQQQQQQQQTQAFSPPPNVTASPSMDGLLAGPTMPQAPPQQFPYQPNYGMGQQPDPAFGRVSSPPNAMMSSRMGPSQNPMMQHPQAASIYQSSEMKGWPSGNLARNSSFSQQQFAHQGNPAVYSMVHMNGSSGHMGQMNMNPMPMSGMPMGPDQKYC
# T1 sequence (P06401 whole entry): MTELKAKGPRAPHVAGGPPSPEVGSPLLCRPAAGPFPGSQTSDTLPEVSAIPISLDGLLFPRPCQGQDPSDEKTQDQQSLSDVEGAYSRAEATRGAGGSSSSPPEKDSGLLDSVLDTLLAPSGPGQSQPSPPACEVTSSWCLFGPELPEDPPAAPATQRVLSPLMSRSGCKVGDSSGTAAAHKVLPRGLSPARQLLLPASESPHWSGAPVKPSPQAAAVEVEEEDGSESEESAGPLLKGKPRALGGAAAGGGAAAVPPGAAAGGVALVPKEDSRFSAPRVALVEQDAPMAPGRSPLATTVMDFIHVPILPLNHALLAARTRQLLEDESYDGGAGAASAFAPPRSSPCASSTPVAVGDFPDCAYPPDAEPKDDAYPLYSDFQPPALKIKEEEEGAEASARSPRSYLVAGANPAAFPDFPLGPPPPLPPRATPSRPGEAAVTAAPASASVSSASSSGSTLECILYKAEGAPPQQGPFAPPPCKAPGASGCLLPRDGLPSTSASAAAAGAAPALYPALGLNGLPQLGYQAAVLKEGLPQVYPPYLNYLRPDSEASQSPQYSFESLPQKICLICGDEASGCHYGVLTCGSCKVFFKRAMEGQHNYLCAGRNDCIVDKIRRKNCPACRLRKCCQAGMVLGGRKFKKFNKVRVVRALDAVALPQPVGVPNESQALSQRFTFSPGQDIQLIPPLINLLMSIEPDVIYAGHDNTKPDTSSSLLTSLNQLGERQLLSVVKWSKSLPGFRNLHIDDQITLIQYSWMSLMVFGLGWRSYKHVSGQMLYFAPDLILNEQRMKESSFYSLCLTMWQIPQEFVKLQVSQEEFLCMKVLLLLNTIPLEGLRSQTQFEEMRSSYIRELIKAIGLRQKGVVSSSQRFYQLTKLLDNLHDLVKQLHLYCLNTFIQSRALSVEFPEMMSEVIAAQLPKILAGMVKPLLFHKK
# T1 sequence (Q9Y6Q9 with tags, fused parts or gaps isoform Q9Y6Q9-5 D131E/G132A/T187P/E704Q/DEL1268-1272 partner): as the sequence (Q9Y6Q9 with tags, fused parts or gaps isoform Q9Y6Q9-5 D131E/G132A/T187P/E704Q/DEL1268-1272 partner) above
substance,measurement,setting,value
"RAC3: transcriptional coactivator of steroid/nuclear receptors, protein of about 1417 amino acids (SEQ ID NO:2); RAC3.1 is the two-hybrid clone, amino acids 401–1204",transcriptional activation by PR on the MMTV-LTR promoter,[1],enhanced transcriptional activation
same,enhancement of ligand-dependent transcriptional activation by Gal4 DBD fusion of RAR,[2],about two-fold
same,interaction with COUP-TFI,COUP (LBD of COUP-TFI),did not interact

# — US7132258B1, “Nucleic acid encoding vitamin D receptor related polypeptide” (University of Massachusetts, priority 1998, dated 2006)
